# Reference: patent publication US20180016614
# Legend:
# [1] = tested on: His-tagged double mutant T7 RNA polymerase K183G, K190L expressed by C321.ΔA.759.T7.D
# [2] = tested on: N-terminally 6-His-tagged T7 RNA polymerase (wild type) expressed by C321.ΔA.759.T7
substance,measurement,setting,value
Outer membrane protease VII (OmpT),proteolytic cleavage of double mutant T7RNAP in lysate (α-His western blot),[1],the double mutant T7RNAP expressed by C321.ΔA.759.T7.D is not cleaved despite the presence of active OmpT in the cellular lysate
same,proteolytic cleavage of T7RNAP during lysate preparation (α-His western blot),[2],the T7RNAP produced by the strain is cleaved near the N-terminus to yield a ˜21 kDa fragment
same,proteolytic cleavage of T7RNAP in lysate of the ompT knockout strain (α-His western blot),[2],a Western blot revealed that in the absence of OmpT the T7RNAP is no longer cleaved
